According to article PMC4893161, “The Dynamic Localization of Cytoplasmic Dynein in Neurons Is Driven by Kinesin-1” (Neuron, 2016):
Values belong to the binder of their own block, whether it stands above or below them.

How the values were obtained:
[1] = biological target: T1, mCherry-tagged DIC1a (dynein intermediate chain 1, isoform a), wild-type (UniProt Q63100 1-643); assay: co-IP; COS cells cotransfected with mCherry-tagged DIC1a (wild-type or WD mutants) and HA-tagged KLC1 or KLC2; IP with anti-mCherry; western blotting with anti-DIC and anti-HA; conditions: partners not purified
T1 construct: cytoplasmic dynein intermediate chain 1, neuron-specific isoform DIC1a with both alternatively spliced regions (AS loop 1 with WD1, AS loop 2 with WD2); also called WT DIC1a; source: COS cells, cotransfected, in lysate

[2] = biological target: T2, WD1^pept, TAMRA-conjugated 11-amino-acid peptide centered on the first tryptophan motif of DIC1 (TAMRA-conjugated (position not given)); assay: fluorescence polarisation; TAMRA-conjugated DIC1 tryptophan-motif peptides with purified KLC1 or KLC2 TPR domain; KD values determined at 150 mM NaCl; conditions: both partners purified
T2 construct: 11 residues of dynein intermediate chain 1 centered on the first tryptophan motif (WD1) in AS loop 1; also called WD1 peptide; peptide of the first DIC1 tryptophan motif

T1 sequence (Q63100 whole entry, canonical isoform): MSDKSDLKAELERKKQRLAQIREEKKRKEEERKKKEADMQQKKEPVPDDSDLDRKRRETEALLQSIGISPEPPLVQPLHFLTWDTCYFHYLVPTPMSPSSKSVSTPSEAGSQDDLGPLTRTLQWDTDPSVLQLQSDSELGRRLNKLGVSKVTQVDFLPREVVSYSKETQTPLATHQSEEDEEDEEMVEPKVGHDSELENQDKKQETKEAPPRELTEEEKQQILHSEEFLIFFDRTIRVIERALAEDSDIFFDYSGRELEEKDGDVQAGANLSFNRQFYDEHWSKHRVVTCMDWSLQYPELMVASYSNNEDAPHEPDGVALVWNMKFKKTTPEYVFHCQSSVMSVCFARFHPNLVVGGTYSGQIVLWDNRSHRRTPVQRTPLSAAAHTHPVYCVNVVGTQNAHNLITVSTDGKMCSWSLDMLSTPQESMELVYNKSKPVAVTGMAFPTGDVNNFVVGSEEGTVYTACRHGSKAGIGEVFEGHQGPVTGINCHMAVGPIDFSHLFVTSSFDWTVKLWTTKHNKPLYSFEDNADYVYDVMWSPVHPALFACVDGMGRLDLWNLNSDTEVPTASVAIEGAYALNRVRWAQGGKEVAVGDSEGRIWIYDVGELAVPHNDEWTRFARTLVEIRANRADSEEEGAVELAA

- fold co-immunoprecipitated relative to KLC1 [1]: 5 fold
B1: HA-tagged KLC2 (kinesin light chain 2) (natural protein, UniProt O88448 1-599, looked up)
chain: MATMVLPREEKLSQDEIVLGTKAVIQGLETLRGEHRALLAPLASHEAGEAEPGSQERCLLLRRSLEAIELGLGEAQVILALSSHLGAVESEKQKLRAQVRRLVQENQWLREELAGTQQKLQRSEQAVAQLEEEKQHLLFMSQIRKLDEMLPQEEKGDVPKDSLDDLFPNEDEQSPAPSPGGGDVAAQHGGYEIPARLRTLHNLVIQYASQGRYEVAVPLCKQALEDLEKTSGHDHPDVATMLNILALVYRDQNKYKDAAHLLNDALAIREKTLGKDHPAVAATLNNLAVLYGKRGKYKEAEPLCKRALEIREKVLGKFHPDVAKQLSNLALLCQNQGKAEEVEYYYRRALEIYATRLGPDDPNVAKTKNNLASCYLKQGKYQDAETLYKEILTRAHEKEFGSVNGENKPIWMHAEEREESKDKRRDRRPMEYGSWYKACKVDSPTVNTTLRTLGALYRPEGKLEAAHTLEDCASRSRKQGLDPASQTKVVELLKDGSGRGHRRGSRDVAGPQSESDLEESGPAAEWSGDGSGSLRRSGSFGKLRDALRRSSEMLVRKLQGGGPQEPNSRMKRASSLNFLNKSVEEPVQPGGRVFLTAAL
notes: kinesin light chain 2; source: COS cells, cotransfected, in lysate

- Kd [2]: 7.58 ± 0.61 µM
B2: KLC1^TPR, purified TPR domain of KLC1 (domain or fragment)
chain: YEIPARLRTLHNLVIQYASQGRYEVAVPSCKQALEDLEKTSGHDHPDVATMLNILALVYRDQNKYKDAANLLNDALAIREKTLGRDHPAVAATLNNLAVLYGKRGKYKEAEPLCKRALEIREKVLGKDHPDVAKQLNNLALLCQNQGKYEEVEYYYQRALGIYQTKLGPDRTPNVAKTKNNLASCYLKQGKFKQAETLYKEILTRAHEAEFGSVDDENKPIWMHAEEREECKGKQKDGSAFGEYGGWYKACKVDSPTVTTTLKNLGALYRRQGKFEAAETLEEAAMRSRKQGL
